Ends that are not written are not given here. Alexa Fluor 488 = fluorescent dye attached through a C5 maleimide linker to the added cysteine

Experimental findings from publication PMC7900517, “PIP2 promotes conformation-specific dimerization of the EphA2 membrane region” (The Journal of Biological Chemistry, 2020) are described below.

Data set [1] deals with the molecule itself. Description: cross-linking; disulfide cross-linking through the C-terminal Cys; unlabeled TMJM in 14:1 PC or 22:1 PC liposomes ± 3% PIP2, lipid-to-peptide ratio 300:1; 19.3 mM HEPES, 1 mM EGTA, shaken 3 h at room temperature (19-21 °C); non-reducing SDS-PAGE (16% tricine gel), silver stain.
Data set [2] deals with the molecule itself. Description: single-molecule photobleaching (TIRF) in SMALPs; Alexa Fluor 488-TMJM in 22:1 PC or 14:1 PC SMALPs with 3% biotin-PE, ± 3% PIP2 or 10% POPS, ± 1 mM Ca2+; lipid-to-peptide ratio 300:1; SMALPs (20 to 30 nM peptide) immobilised on PEGylated slides via biotin-streptavidin; SMALP buffer 19.3 mM HEPES, 150 mM NaCl, 1 mM EGTA; photobleaching steps counted for each SMALP.

B1: TMJM peptide (unlabeled) (peptide)
peptide: GSGNLAVIGGVAVGVVLLLVLAGVGFFIHRRRKCWN
notes: EphA2 residues 531 to 563: a short stretch of extracellular residues, the TMD and the first five JM residues (HRRRK); added residues at the C terminus; the free cysteine forms the disulfide in the cross-linking experiment; Free Cys at the JM end; also called unlabeled TMJM; source: synthetic peptide (F-moc chemistry, Thermo Fisher)
Consider B1, for which the binding result in data set [1] is reported as “binds”.

B2: TMJM peptide labeled with Alexa Fluor 488 (peptide)
peptide: GSGNLAVIGGVAVGVVLLLVLAGVGFFIHRRRKC(Alexa Fluor 488)WN
modifications: also: Alexa Fluor 488 (C5 maleimide) on the added C-terminal cysteine
notes: EphA2 residues 531 to 563: a short stretch of extracellular residues, the TMD and the first five JM residues (HRRRK); added residues at the C terminus: a cysteine for dye conjugation and a tryptophan as fluorescent reporter; Reconstituted in 14:1 PC or 22:1 PC bilayers with 3% biotin-PE and solubilised as SMALPs; also called Alexa Fluor 488 labeled TMJM peptide; source: synthetic peptide (F-moc …)
As usually defined, the stoichiometry N is a count of units in the complex or per binding partner. For the protein B2, the “stoichiometry N” value in data set [2] worked out at 2.
